According to the RNAGym collection of RNA variant scans (doi:10.7554/elife.80360):

B1: Twister Ribozyme (parent)
chain: AACACUGCCAAUGCCGGUCCCAAGCCCGGAUAAAAGUGGAGGGGGCGG

Variants of: B1
Experiment: self-cleavage, relative activity (ratio to wild type); higher = more cleavage; co-transcriptional

Variant	self-cleavage
G7U C9A	0.0711
G7U C9G	0.0496
G7U C14A	0.133
G7U C14G	0.0477
G7U C15G	0.0331
G7U C15U	0.101
G7U C19A	0.0864
G7U C20G	0.0693
G7U C20U	0.0823
G7U C21A	0.0755
G7U C25G	0.401
G7U C26U	0.0446
G7U C27A	0.0728
G7U C27U	0.079
G7U C46G	0.047
G7U C46U	0.103
G7U G13U	0.0485
G7U G16C	0.0533
G7U G17A	0.0885
G7U G17C	0.0441
G7U G24A	0.0738
G7U G28C	0.0665
G7U G28U	0.0862
G7U G29U	0.0673

Variant	self-cleavage
G7U G36A	0.0763
G7U G36C	0.0408
G7U G36U	0.0615
G7U G38A	0.0965
G7U G39U	0.0651
G7U G41A	0.0662
G7U G41U	0.0899
G7U G42A	0.0796
G7U G42C	0.0955
G7U G43U	0.102
G7U G44C	0.0951
G7U G45C	0.118
G7U G47A	0.0641
G7U G48C	0.123
G7U G48U	0.0928
G7U U18A	0.0251
G7U U18C	0.0819
G7U U18G	0.0649
G7U U31C	0.111
G7U U37C	0.0889
G7U U37G	0.0777
C8A A10U	0.239
C8A A22C	0.45
C8A A22G	0.107

Variant	self-cleavage
C8A A23C	0.0825
C8A A23G	0.0496
C8A A23U	0.0553
C8A A30C	0.147
C8A A30U	0.284
C8A A32U	0.275
C8A A33C	0.279
C8A A34G	0.701
C8A A34U	0.675
C8A A40C	0.113
C8A A40G	0.17
C8A A40U	0.2
C8A C9A	0.0842
C8A C9G	0.122
C8A C9U	0.0937
C8A C14A	0.529
C8A C14G	0.0608
C8A C14U	0.597
C8A C15A	0.134
C8A C19G	0.0926
C8A C20A	0.0847
C8A C20U	0.0847
C8A C21A	0.0745
C8A C21G	0.076

Variant	self-cleavage
C8A C25A	0.0389
C8A C26A	0.106
C8A C26G	0.0829
C8A C27A	0.0935
C8A C27G	0.0579
C8A C46U	0.46
C8A G13C	0.0783
C8A G16A	0.153
C8A G16C	0.0923
C8A G17A	0.12
C8A G17C	0.0615
C8A G17U	0.0971
C8A G24A	0.18
C8A G28A	0.281
C8A G29A	0.327
C8A G29C	0.0825
C8A G29U	0.295
C8A G36U	0.108
C8A G38A	0.343
C8A G38C	0.161
C8A G39U	0.123
C8A G41C	0.124
C8A G41U	0.146
C8A G42A	0.141

Variant	self-cleavage
C8A G42C	0.285
C8A G42U	0.168
C8A G43C	0.153
C8A G44C	0.276
C8A G44U	0.271
C8A G45A	0.203
C8A G45C	0.141
C8A G45U	0.176
C8A G48A	0.215
C8A G48C	0.346
C8A G48U	0.257
C8A U12C	0.504
C8A U12G	0.213
C8A U18A	0.111
C8A U18G	0.0805
C8A U31A	0.433
C8A U31C	0.652
C8A U37A	0.225
C8G A10C	0.872
C8G A10G	0.592
C8G A11C	0.55
C8G A11U	0.691
C8G A22C	0.437
C8G A23C	0.0689

Variant	self-cleavage
C8G A30C	0.122
C8G A30G	0.643
C8G A30U	0.409
C8G A33G	0.232
C8G A33U	0.279
C8G A35C	0.478
C8G A35G	0.222
C8G A35U	0.566
C8G A40G	0.146
C8G C9A	0.0971
C8G C14U	0.625
C8G C15G	0.062
C8G C19U	0.113
C8G C20U	0.0992
C8G C21A	0.041
C8G C21U	0.0624
C8G C25U	0.112
C8G C26G	0.12
C8G C27A	0.0513
C8G C27U	0.14
C8G C46A	0.231
C8G C46G	0.344
C8G G13A	0.405
C8G G13C	0.0604

Variant	self-cleavage
C8G G16A	0.061
C8G G16C	0.0753
C8G G24U	0.747
C8G G28C	0.083
C8G G28U	0.0873
C8G G36A	0.129
C8G G36U	0.11
C8G G38A	0.325
C8G G39U	0.129
C8G G41U	0.129
C8G G42U	0.147
C8G G43A	0.137
C8G G43C	0.139
C8G G43U	0.148
C8G G44A	0.513
C8G G44U	0.275
C8G G45A	0.207
C8G G45C	0.118
C8G G45U	0.183
C8G G48A	0.227
C8G U12G	0.676
C8G U18A	0.0816
C8G U31G	0.464
